To fix the notation:
T1: recombinant human LY6H-ECD (C-terminal histidine tag) (human, UniProt O94772 26-115)
T1 construct: The ectodomain was cloned by PCR with a non-native signal peptide and a C-terminal histidine tag; also called recombinant LY6H; hLY6H-ECD; not shown: C-terminal histidine tag
T1 sequence (looked up): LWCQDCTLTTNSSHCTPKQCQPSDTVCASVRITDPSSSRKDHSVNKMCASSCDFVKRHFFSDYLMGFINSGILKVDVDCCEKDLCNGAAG

T2: human LY6H, endogenous on cancer cell lines (H446, DMS79, H526, MOLT3, KE-37) (human, UniProt O94772 26-115)
T2 construct: Endogenous protein on human SCLC and T-ALL cell lines
T2 sequence (looked up): T1 sequence (looked up)

T3: Macaca fascicularis LY6H expressed on 293T cells (plasmid BBP 492/598, M1-P140 plus Myc-DDK) (Macaca fascicularis, UniProt Q4R5M8 26-115)
T3 construct: Full construct as encoded; also called monkey LY6H; not shown: Myc-DDK tag at the C-terminus
T3 sequence: T1 sequence (looked up) with C80Y, A88V

B1: 11D9 (antibody, V domains shown)
VH: QVQLQESGPGLVKPSGTLSLTCTVSGGSISSSSWWSWVRLPPGKGLEWIGEIYHSGSTNYNPSLKSRVTISVDKSKNQFSLKLSSVTAADTAVYYCGGVRGVVMAFDIWGQGTMVTVSS
VL: not shown
notes: also called 11D9_19D5
B2: 6D11 (antibody, V domains shown)
VH: QVQLQQWGAGLFKPSETLSLTCAVYGGSFSGSLWSWIRQPPGKGLEWIGEINHSGSTNYTPSLKSRVTISVDTSKNQFSLKLTSVTAADTAVYYCARGRHIVVVTAIHSPFDYWGQGTLVTVSS
VL: DIQMTQSPSSLSASVGDRVTITCRASQGISNYLAWYQQKPGKVPKLLIFAASTLQSGVPSRFSGSGSGTDFTLTISSLQPEDVATYYCQKYNSAPRTFGQGTKLEIK
notes: Recombinant antibody made in CHO cells; also called 6D11_25D6
B3: 12G7 (antibody, V domains shown)
VH: QVQLQQWGAGLLKPSETLSLTCAVYGGSFSGYYWSWIRQPPGKGLEWIGEINHSGSTYYNPSLKSRVTMSVDTSKNQFSLKLSSVTAADTAVYYCAKRWELGAFDIWGQGTMVTVSS
VL: B2 VL with F49Y
notes: Recombinant antibody from H2L2 mice (human variable regions), made in CHO cells, purified on Protein A and detected with anti-human IgG; also called 12G7_19A2; anti-LY6H antibody (12G7)
B4: 10B10 (antibody, V domains shown)
VH: QVQLQQWGAGLLKPSETLSLTCAVYGGSFSGYYWHWIRQPPGKGLEWIGEINHSESTKYNPSLKSRVTISVDTSKNQFSLKLSSVTGADTAVYYCARGQHIVVVTDSLGDYWGQGTLVTVSS
VL: B2 VL with F49Y
notes: also called 10B10_25A1
B5: 6D11-41B4 (antibody, V domains shown)
VH: B2 VH with S54A, N58Q
VL: B2 VL
B6: 10B10-S54A (antibody, V domains shown)
VH: B4 VH with S54A
VL: B2 VL with F49Y
B7: 12G7-S54A (antibody, V domains shown)
VH: B3 VH with S54A
VL: B2 VL with F49Y
B8: 23F3 (antibody, V domains shown)
VH: QVQLQESGPGLVKPSGTLSLTCAVSGGSISSSNWWSWVRQPPGKGLEWIGEIYHSGSTNYNPSLKSRVTISVDKSKNQFSLKLSSVTAADTAVYYCARVDILTGGNFDYWGQGTLVTVSS
VL: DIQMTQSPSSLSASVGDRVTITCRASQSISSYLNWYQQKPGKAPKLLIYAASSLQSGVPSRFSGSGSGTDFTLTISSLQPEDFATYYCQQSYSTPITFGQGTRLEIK
notes: also called 23F3_19B2
B9: 34H6 (antibody, V domains shown)
VH: QVQLVESGGGVVQPGRSLRLSCAASGFTFSSYGMHWVRQAPGKGLEWVAVIWYDGSNKYYADSVKGRFTISRDNSKNTLYLQMNSLRAEDTAVYYCARSIVVVTGFGDYWGQGTLVTVSS
VL: not shown
notes: also called 34H6_20A1
B10: 2B11 (antibody, V domains shown)
VH: B9 VH with S31N, A88T, G105A, F106T, G107L
VL: not shown
notes: also called 2B11_25D1
B11: 22A5_19A5 (antibody, V domains shown)
VH: QVQLVESGGGVVQPGRSLRLSCAASGFTFSSYGMHWVRQAPGKGLEWVAVIWYDGSNKYYADSVKGRFTISRDNSKNTLYLQMNSLRAEDTAVYYCARDLWFGESRGGMDVWGQGTTVTVSS
VL: not shown
notes: human anti-LY6H antibody

The record followed here is US20250319180A1 (BLUEFIN BIOMEDICINE, published 2025).

Changes are numbered by the printed parent chain. In names and notes the source's numbering stands.

For the first assay, the target named is T1, recombinant human LY6H-ECD (C-terminal …). The assay can be described thus: Octet Red BLI, antibody on Protein A biosensor, recombinant human LY6H in solution. As to the method:
Affinity: The affinity of antibodies to various recombinant LY6H protein was determined on an Octet Red™ instrument. After loading reagents into a 96-well plate, the Octet Red with Protein A-conjugated biosensors was programmed as follows: 30 seconds for baseline #1; 120 seconds to immobilize the antibody; 30 seconds for baseline #2; 300 seconds for association of antibody to recombinant LY6H; and 300-600 seconds for dissociation of recombinant LY6H from the antibody.
Turning to B1, the equilibrium dissociation constant (Kd) turned out to be 31 nM.

As for B2, the Kd was found to be 22 nM.

As for B3, the dissociation constant (Kd) was 4 nM.

Take B4: the dissociation constant Kd was determined as 47 nM.

Take B5: the dissociation constant Kd worked out at 25 nM.

As to B6, the dissociation constant (Kd) is 42 nM.

On to B7, for which the Kd came to 4 nM.

The target in a further assay is T2, human LY6H, endogenous on cancer cell …. Kind of assay: flow cytometry, antibody titrated 0.1-100 nM on H446 cells, MFI; column H446_EC50 (nM). As to the method:
(§1) The assay uses 3-5 fold dilutions (from 100 nM to 0.1 nM) of antibody of a stock antibody concentration (100 nM) in binding buffer. Serial diluted antibodies were incubated with live cells on ice for 30 minutes, after a brief wash, cells were incubated with Alexa Fluro® 488-conjugated anti-human IgG secondary antibody @1:100, or 15 μg/ml (709-546-149, Jackson ImmunoResearch). Acquisition of the MFI (Median Fluorescent Intensity) was performed on a MACSQuant® Flow Cytometers (Miltenyi Biotec). EC₅₀ was calculated using Dose-response EC₅₀ shift by global fitting from GraphPad Prism.
(§2) An estimate of affinity is interpreted from one-half the concentration at which antibody binding first achieves saturation.
B8 gave a concentration for a half-maximal effect (EC50) of 2.3 nM.

The molecule B1 returned an EC50 of 2.6 nM.

Regarding B3, the half-maximal effective concentration (EC50) was found to be 3 nM. The EC50 values of the last two molecules are within 1.5-fold of each other.

B9 returned an EC50 of 2.4 nM.

The next assay has the same target. The assay can be described thus: flow cytometry, antibody titrated 0.1-100 nM on H526 cells, MFI; column H526_EC50 (nM). As to the method: as §1, §2
As to B3, the midpoint of the response, the EC50, lay at 1.9 nM.

Molecule B9 yielded a concentration giving a half-maximal response (EC50) of 2.9 nM.

For the next assay the target is unchanged. Kind of assay: flow cytometry, antibody titrated 0.1-100 nM on DMS79 cells, MFI; lower panel and table, column DMS79_EC50 (nM). As to the method:
as §1, §2
For B2, a half-maximal response (EC50) required 1.3 nM.

B3: the midpoint of the response, the EC50, lay at 1.9 nM.

On to B4, for which the EC50 came to 2 nM.

With B10, the EC50 turned out to be 3.4 nM.

The next assay has the same target. The assay can be described thus: flow cytometry, antibody titrated 0.1-100 nM on DMS79 cells, MFI; upper panel and table, column DMS79_EC50 (nM). As to the method:
as §1, §2
In turn, B8 gave an EC50 of 17.8 nM.

For the molecule B1, the EC50 is 2.2 nM. Compared with the last molecule, the EC50 is about 8.1-fold lower.

B3 displayed an EC50 of 2.4 nM.

Molecule B9 registered an EC50 of 0.9 nM. Compared with the last molecule, the EC50 is about 2.7-fold lower.

A further assay shares this target. Kind of assay: flow cytometry, antibody titrated 0.1-100 nM on MOLT3 cells, MFI; lower panel and table, column MOLT3_EC50 (nM). As to the method:
as §1, §2
Consider B2, for which the EC50 was 0.6 nM. That is a sub-nanomolar value.

B3 yielded an EC50 of 0.8 nM.

B4 had an EC50 of 0.7 nM. The EC50 values of the last two molecules are within 1.5-fold of each other.

B10 displayed a concentration giving a half-maximal response (EC50) of 3.9 nM.

Another assay has the same target. The assay can be described thus: flow cytometry, antibody titrated 0.1-100 nM on MOLT3 cells, MFI; upper panel and table, column MOLT3_EC50 (nM). As to the method:
as §1, §2
For the molecule B8, the EC50 amounted to 5.4 nM.

B1: the concentration for a half-maximal effect (EC50) was 1.4 nM. Against the preceding molecule, the EC50 is about 3.9-fold lower.

On to B3, for which the EC50 was found to be 0.7 nM.

In turn, B9 had a half-maximal effective concentration (EC50) of 0.7 nM.

Another assay shares this target. Kind of assay: flow cytometry, antibody titrated 0.1-100 nM on H526 cells, MFI; column H526_EC50 (nM); curve has no plateau at 100 nM. As to the method:
as §1, §2
In the case of B8, the half-maximal effective concentration (EC50) is 73.5 nM. This counts as double-digit nanomolar.

The molecule B1 came in with an EC50 of 13.2 nM.

A further assay addresses T3, Macaca fascicularis LY6H expressed on …. Kind of assay: flow cytometry on 293 cells expressing Macaca fascicularis LY6H (293-neo-cyno LY6H); antibody 1 ug/ml per paragraph 484; solid histogram = hIgG1 control [cont.]. As to the method:
Staining for flow cytometry was performed in 1× cold PBS with 0.5% BSA.
For the molecule B2, the binding result is reported as “binds”.

Another assay deals with T2, human LY6H, endogenous on cancer cell …. The assay can be described thus: flow cytometry, antibody titrated 0.1-100 nM on H526 cells, MFI; column H526_EC50 (nM); value lies above the highest concentration tested, curve has no plateau. As to the method: as §1, §2
Molecule B11 displayed a half-maximal effective concentration (EC50) of 122 nM. In other words, the sub-micromolar range.

Another assay deals with T3, Macaca fascicularis LY6H expressed on …. Kind of assay: on-cell affinity by flow cytometry: unconjugated 12G7 (0.05-100 nM) competes with 1 nM PE-conjugated 12G7 on 293T cells expressing Macaca fascicularis LY6H (per legend paragraph 131); table row 293T-mmLY6H. As to the method:
Serial diluted antibodies were incubated with 293 cells expressing either human or Macaca fascicularis on ice for 4 hours, after a brief wash. Acquisition of the MFI (Median Fluorescent Intensity) was performed on a MACSQuant® Flow Cytometers (Miltenyi Biotec). On cell affinity (Kd) was calculated using dose-response EC50 shift by global fitting from GraphPad Prism™.
Serial diluted antibodies were incubated with live cells on ice for 4 hours, after a brief wash. Acquisition of the MFI (Median Fluorescent Intensity) was performed on a MACSQuant® Flow Cytometers (Miltenyi Biotec). On cell affinity (Kd) was calculated using Dose-response EC₅₀ shift by global fitting from GraphPad Prism™.
On to B3, for which the equilibrium dissociation constant (Kd) was 14.5 nM.
